The source of these data is PMC3041740, “Interplay between HIV Entry and Transportin-SR2 Dependency” (Retrovirology, 2011).

In this assay the target is T1, GST-TRN-SR2 (transportin-SR2) (UniProt Q9Y5L0-2 1-923).
T1 construct: transportin-SR2 (TRN-SR2, TNPO3, transportin 3); also called TNPO3; transportin 3; source: recombinant, expressed from pGEX-6P-2, purified using Glutathione Sepharose Resin
T1 sequence (looked up): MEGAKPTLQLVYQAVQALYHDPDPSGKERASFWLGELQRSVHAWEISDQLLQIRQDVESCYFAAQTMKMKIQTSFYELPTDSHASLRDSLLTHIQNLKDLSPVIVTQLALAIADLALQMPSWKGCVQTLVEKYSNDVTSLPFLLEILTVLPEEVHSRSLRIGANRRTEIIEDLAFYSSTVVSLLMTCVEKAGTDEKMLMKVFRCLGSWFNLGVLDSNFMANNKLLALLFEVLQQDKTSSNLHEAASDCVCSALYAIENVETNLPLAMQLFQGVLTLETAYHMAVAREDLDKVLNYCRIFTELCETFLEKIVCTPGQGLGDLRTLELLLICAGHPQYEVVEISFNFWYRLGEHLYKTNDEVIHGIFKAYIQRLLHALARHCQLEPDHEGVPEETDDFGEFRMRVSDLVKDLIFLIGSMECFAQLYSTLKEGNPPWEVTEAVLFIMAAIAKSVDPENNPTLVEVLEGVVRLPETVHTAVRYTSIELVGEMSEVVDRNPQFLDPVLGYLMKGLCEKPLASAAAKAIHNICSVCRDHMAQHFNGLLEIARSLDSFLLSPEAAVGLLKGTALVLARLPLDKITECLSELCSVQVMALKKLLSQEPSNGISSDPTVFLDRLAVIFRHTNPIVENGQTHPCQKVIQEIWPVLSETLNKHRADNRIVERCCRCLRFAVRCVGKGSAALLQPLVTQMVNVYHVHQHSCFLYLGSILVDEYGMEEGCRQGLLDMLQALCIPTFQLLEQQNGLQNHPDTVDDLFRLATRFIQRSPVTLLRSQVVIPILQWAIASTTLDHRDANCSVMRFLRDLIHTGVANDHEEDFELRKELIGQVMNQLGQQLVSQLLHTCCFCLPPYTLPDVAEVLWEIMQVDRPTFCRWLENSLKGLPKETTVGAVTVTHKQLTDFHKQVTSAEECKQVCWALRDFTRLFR
Kind of assay: AlphaScreen or HTRF; 10 nM GST-TRN-SR2 titrated with 1 to 150 nM His6-tagged protein; glutathione donor and nickel-chelate acceptor beads; 25 mM Tris/HCl pH 7.4, 150 mM NaCl, 1 mM MgCl2, 0.1% Tween-20, 0.1% BSA; 1 h at 4°C, then 1.5 h at room temperature with beads; apparent Kd. Particulars: both partners purified. In general terms: In Alpha technology, singlet oxygen from a donor bead excites a nearby acceptor bead.

B1: HIV-1 integrase, C-terminally His6-tagged (enzyme)
chain: FLDGIDKAQEEHEKYHSNWRAMASDFNLPPVVAKEIVASCDKCQLKGEAMHGQVDCSPGIWQLDCTHLEGKVILVAVHVASGYIEAEVIPAETGQETAYFLLKLAGRWPVKTVHTDNGSNFTSTTVKAACWWAGIKQEFGIPYNPQSQGVIESMNKELKKIIGQVRDQAEHLKTAVQMAVFIHNFKRKGGIGGYSAGERIVDIIATDIQTKELQKQITKIQNFRVYYRDSRDPVWKGPAKLLWKGEGAVVIQDNSDIKVVPRRKAKIIRDYGKQMAGDDCVASRQDED
With B1, the Kd came to 36.3 ± 2.3 nM.

B2: MLV integrase, C-terminally His6-tagged (enzyme)
chain: IENSSPYTSEHFHYTVTDIKDLTKLGAIYDKTKKYWVYQGKPVMPDQFTFELLDFLHQLTHLSFSKMKALLERSHSPYYMLNRDRTLKNITETCKACAQVNASKSAVKQGTRVRGHRPGTHWEIDFTEIKPGLYGYKYLLVFIDTFSGWIEAFPTKKETAKVVTKKLLEEIFPRFGMPQVLGTDNGPAFVSKVSQTVADLLGIDWKLHCAYRPQSSGQVERMNRTIKETLTKLTLATGSRDWVLLLPLALYRARNTPGPHGLTPYEILYGAPPPLVNFPDPDMTRVTNSPSLQAHLQALYLVQHEVWRPLAAAYQEQLDRPVVPHPYRVGDTVWVRRHQTKNLEPRWKGPYTVLLTTPTALKVDGIAAWIHAAHVKAADPGGGPSSRLTWRVQRSQNPLKIRLTREAP
notes: integrase (IN) of murine leukemia virus (MLV); also called His6-tagged MLV IN; not shown: His6, C-terminal, kept
With B2, the Kd was determined as 17.5 ± 0.5 nM.
